From patent US20170137520A1 (Merck Sharp & Dohme, published 2017) come the findings set out here.

Assay [1] deals with T1, human CTLA-4 expressed on cell surface (hCTLA4-overexpressing CHO-K1 cells) (human, UniProt P16410 36-223).
T1 construct: The construct expressed in the cells is not described further; also called huCTLA-4+ CHO-K cells; CTLA-4+ CHO-K1 cells
T1 sequence: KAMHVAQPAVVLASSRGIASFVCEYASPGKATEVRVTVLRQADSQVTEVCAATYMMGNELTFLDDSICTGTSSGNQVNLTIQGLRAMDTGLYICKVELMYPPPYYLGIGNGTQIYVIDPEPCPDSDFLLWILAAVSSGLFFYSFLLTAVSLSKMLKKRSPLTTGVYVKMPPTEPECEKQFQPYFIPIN
Description: competition flow cytometry (cFACS) on CHO-K1 hCTLA4 cells against a fixed concentration (EC30) of hCD86-hFc; bound ligand detected via its human IgG Fc; MedianFI (PE). The text has this: (§1) F023700906, a building block of F023700925, as well as F023701051, F023701054 and F023701061 blocked binding of human CTLA-4 to its ligands CD80 and CD86. Flow cytometry analysis of discovery batches of N73X variants (filled squares, filled triangles, filled triangles upside-down) of Nb F023700906 (filled circles) with fixed concentrations (EC30) of (A) hCD80-hFc or (B) hCD86-hFc on hCTLA4-overexpressing CHO-K1 cells. The ligands were detected via the human IgG Fc fusion protein. The flow cytometry data generated in this experiment are in FIG. 10 (A-B).

The target of assay [2] is T1, human CTLA-4 expressed on cell surface …. Description: competition flow cytometry (cFACS) on CHO-K1 hCTLA4 cells against a fixed concentration (EC30) of hCD80-hFc; MedianFI (PE).
Assay [3] shares this target. Description: competition flow cytometry (cFACS) on CHO-K1 hCTLA4 cells against a fixed concentration (EC30) of hCD80-hFc; bound ligand detected via its human IgG Fc; MedianFI (PE).
From the text: as §1

Assay [4] has the same target. Description: competition flow cytometry (cFACS) on CHO-K1 hCTLA4 cells against a fixed concentration (EC30) of hCD86-hFc; MedianFI (PE).
In assay [5] the target is T2, Cynomolgus CTLA-4-Fc (cynomolgus monkey, UniProt G7PL88 37-162).
T2 construct: also called cynomolgus monkey CTLA4-hFc; not shown: human Fc (hFc)
T2 sequence: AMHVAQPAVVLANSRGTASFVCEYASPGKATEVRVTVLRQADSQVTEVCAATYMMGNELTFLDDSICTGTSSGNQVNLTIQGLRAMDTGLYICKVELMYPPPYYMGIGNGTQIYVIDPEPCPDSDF
Description: kinetic binding analysis on CTLA4-hFc; method not stated. How it is done: (§2) On-rate, off-rate and affinity were determined using human and cynomolgus monkey CTLA4-hFc (Table below).

The target of assay [6] is T3, Human CTLA-4-Fc (human, UniProt P16410 37-162, limits assumed).
T3 construct: also called human CTLA4-hFc; CTLA-4-Fc fusion molecule from human; not shown: human Fc (hFc)
T3 sequence: T2 sequence with N13S, T17I, M105L
The assay is described as above. How it is done: as §2

Where a chain is given by its changes, count along the chain named. Names may count otherwise.

B1: F023700906 Nanobody, CTLA4 binder 11F01 (L11V,A14P,Q45R,A74S,K83R,V89L,M96P,Q108L)-FLAG3-HIS6 (VHH)
VHH: EVQLVESGGGVVQPGGSLRLSCAASGGTFSFYGMGWFRQAPGKEREFVADIRTSAGRTYYADSVKGRFTISRDNSKNTVYLQMNSLRPEDTALYYCAAEPSGISGWDYWGQGTLVTVSS
notes: also called F02370906; Nb F023700906
B1: the “IC50 (read off the curve)” value was approximately 2 nM in assay [1], approximately 10 nM in assay [2], approximately 10 nM in assay [3] and approximately 2 nM in assay [4]. Further, the Kd in assay [5] and in assay [6] was 1.2 nM in each case. The koff in assay [5] was 0.0057 s⁻¹; in assay [6], 0.0059 s⁻¹. The kon in assay [5] stood at 4.7e+06 M⁻¹ s⁻¹; in assay [6], 4.8e+06 M⁻¹ s⁻¹.

B2: F023701051 [11F01 (L11V,A14P,Q45R,N73Q,A74S,K83R,V89L,M96P,Q108L)-FLAG3-HIS6] (VHH, name in Kabat numbering)
VHH: B1 VHH with N74Q
notes: N73 is Kabat numbering; also called F02371051
Turning to B2, the “IC50 (read off the curve)” value in assay [1] is approximately 2 nM; in assay [2], approximately 10 nM; in assay [3], approximately 10 nM; in assay [4], approximately 2 nM.

B3: F023701061 [11F01 (L11V,A14P,Q45R,N73Y,A74S,K83R,V89L,M96P,Q108L)-FLAG3-HIS6] (VHH, name in Kabat numbering)
VHH: B1 VHH with N74Y
notes: N73 is Kabat numbering
B3: the “IC50 (read off the curve)” value was approximately 2 nM in assay [1], approximately 10 nM in assay [2], approximately 10 nM in assay [3] and approximately 2 nM in assay [4].

B4: F023701054 [11F01 (L11V,A14P,Q45R,N73T,A74S,K83R,V89L,M96P,Q108L)-FLAG3-HIS6] (VHH, name in Kabat numbering)
VHH: B1 VHH with N74T
notes: N73 is Kabat numbering
Turning to B4, the “IC50 (read off the curve)” value is approximately 2 nM in assay [1], approximately 10 nM in assay [2], approximately 10 nM in assay [3] and approximately 2 nM in assay [4].
